# Results reported in article PMC2571106 (BMC Microbiology, 2008).
# B1: rSlpA_(179-435) (domain or fragment, Lactobacillus brevis ATCC 8287, UniProt Q05044 209-465, looked up)
# chain: SGISGWIYAGKGFSTTATGTQVLGGLSTDKSVTATNDNSVKIVYRTTDGTQVGSNTWVTSTDGTKAGSKVSDKAADQTALEAYINANKPSGYTVTNPNAADATYGNTVYATVSQAATSKVALKVSGTPVTTALTTADANDKVAANDTTANGSSVAGSTVYAAGTKLAQLTTDLTGEKGQVVTLTAIDTDLEDATFTGTTTYYSDLGKAYHYTYTYNKDSAASSNASTQFGSNVTGTLTATLVMGKSTATANGTTWFN
# notes: numbers count on: the mature protein; also called rSlpA C-terminal domain; source: E. coli BL21(DE3), purified (His Trap HP in 4 M GHCl or 6 M urea)
# B2: rSlpA_(146-435) (domain or fragment, Lactobacillus brevis ATCC 8287, UniProt Q05044 176-465, looked up)
# chain: LYGVAKDTKFTVDQAATKTREGSLYYHVTATNGSGISGWIYAGKGFSTTATGTQVLGGLSTDKSVTATNDNSVKIVYRTTDGTQVGSNTWVTSTDGTKAGSKVSDKAADQTALEAYINANKPSGYTVTNPNAADATYGNTVYATVSQAATSKVALKVSGTPVTTALTTADANDKVAANDTTANGSSVAGSTVYAAGTKLAQLTTDLTGEKGQVVTLTAIDTDLEDATFTGTTTYYSDLGKAYHYTYTYNKDSAASSNASTQFGSNVTGTLTATLVMGKSTATANGTTWFN
# notes: numbers count on: the mature protein; Cloned through an NcoI site; the primer may add residues at the N-terminus (surmise from primer 1602); source: E. coli BL21(DE3), purified (His Trap HP in 4 M GHCl or 6 M urea)
# B3: full length recombinant SlpA (SlpA 1-435), S-layer protein of Lactobacillus brevis ATCC 8287 (natural protein, UniProt Q05044 31-465, looked up)
# chain: KSYATAGAYSTLKTDAATRNVEATGTNALYTKPGTVKGAKVVASKATMAKLASSKKSADYFRAYGVKTTNRGSVYYRVVTMDGKYRGYVYGGKSDTAFAGGIKSAETTTKADMPARTTGFYLTDTSKNTLWTAPKYTQYKASKVSLYGVAKDTKFTVDQAATKTREGSLYYHVTATNGSGISGWIYAGKGFSTTATGTQVLGGLSTDKSVTATNDNSVKIVYRTTDGTQVGSNTWVTSTDGTKAGSKVSDKAADQTALEAYINANKPSGYTVTNPNAADATYGNTVYATVSQAATSKVALKVSGTPVTTALTTADANDKVAANDTTANGSSVAGSTVYAAGTKLAQLTTDLTGEKGQVVTLTAIDTDLEDATFTGTTTYYSDLGKAYHYTYTYNKDSAASSNASTQFGSNVTGTLTATLVMGKSTATANGTTWFN
# notes: numbers count on: the mature protein; Two full length constructs were made: pKTH5198 (C-terminal linker-His6) and pKTH5199 (N-terminal His6-linker); no cleavage is mentioned; also called rSlpA; nontruncated rSlpA; source: E. coli BL21(DE3), purified (His Trap HP in 4 M GHCl or 6 M urea)
# B4: wild type SlpA isolated from L. brevis ATCC 8287 cells (natural protein, Lactobacillus brevis ATCC 8287, UniProt Q05044 31-465, looked up)
# chain: B3 chain
# notes: numbers count on: the mature protein; source: extracted from L. brevis ATCC 8287 cells with 2 M GHCl, dialysed
# Assays:
# [1] = target: the molecule itself; assay: precipitation after dialysis from GHCl (self-assembly test); affinity purified protein dissolved in 5 M GHCl at 1 mg/ml, dialysed against PBS for two hours at 4°C, centrifuged 16,000 x g 30 min, precipitate checked by SDS-PAGE
# [2] = target: the molecule itself; assay: transmission electron microscopy of self-assembly products (negative stain); 1 mg purified, lyophilised recombinant protein in 1 ml 5 M GHCl, 50 mM Tris-HCl pH 7.2, dialysed against 10 mM CaCl2 in distilled water for 18 h; negative stain with 2,5% uranyl acetate
# [3] = target: the molecule itself; assay: transmission electron microscopy of self-assembly products (negative stain); SlpA extracted from L. brevis cells with 2 M GHCl, 1 mg/ml, dialysed against water with 5 mM CaCl2 and then water at +4°C; pelleted self-assembly products in 25 mM Tris-HCl pH 8.0
Protein,binding result [1],other results
B1,binds,–
B2,binds,–
B3,–,binding result [2]: binds
B4,–,binding result [3]: binds
